Columns and labels:
[1] = biological target: T1, recombinant toxoid variant of the LukAB protein (LukA E323A) with poly-histidine and streptavidin binding … (Staphylococcus aureus, UniProt Q2FFA2 31-351; P21224 30-338); experiment: ELISA, biotinylated LukAB toxoid on streptavidin plate, mAb titrated
T1 construct: also called LukAB toxoid protein; biotinylated LukAB

[2] = biological target: T2, recombinant derivative of the LukE protein (SEQ ID NO: 826) with amino-terminal poly-histidine affinity tag (Staphylococcus aureus, UniProt Q2FXB0 24-306); experiment: HDX-MS, Fab with LukE in solution
T2 construct: not biotinylated in HDX-MS and neutralization assays; also called biotinylated LukE; LukE antigen
T2 sequence: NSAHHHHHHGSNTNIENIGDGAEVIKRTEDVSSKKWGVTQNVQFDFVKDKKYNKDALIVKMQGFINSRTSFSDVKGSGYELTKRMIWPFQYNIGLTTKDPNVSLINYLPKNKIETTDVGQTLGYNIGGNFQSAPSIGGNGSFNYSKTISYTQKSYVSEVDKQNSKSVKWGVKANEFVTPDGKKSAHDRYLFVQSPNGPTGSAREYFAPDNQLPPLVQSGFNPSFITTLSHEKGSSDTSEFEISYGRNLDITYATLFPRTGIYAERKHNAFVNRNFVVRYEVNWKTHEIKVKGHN

[3] = biological target: T2, recombinant derivative of the LukE …; experiment: BLI, sequential binding
[4] = biological target: T2, recombinant derivative of the LukE …; experiment: ELISA, biotinylated LukE on streptavidin plate, mAb titrated
[5] = biological target: T3, recombinant derivative of the LukD protein (SEQ ID NO: 824) with amino-terminal polyhistidine affinity tag, … (Staphylococcus aureus, UniProt Q2FXB1 27-327, chemically biotinylated in vitro (sites not given)); experiment: ELISA, biotinylated LukD on streptavidin plate, mAb titrated
T3 construct: it carries the N-terminal His tag; also called biotinylated LukD; LukD antigen
T3 sequence: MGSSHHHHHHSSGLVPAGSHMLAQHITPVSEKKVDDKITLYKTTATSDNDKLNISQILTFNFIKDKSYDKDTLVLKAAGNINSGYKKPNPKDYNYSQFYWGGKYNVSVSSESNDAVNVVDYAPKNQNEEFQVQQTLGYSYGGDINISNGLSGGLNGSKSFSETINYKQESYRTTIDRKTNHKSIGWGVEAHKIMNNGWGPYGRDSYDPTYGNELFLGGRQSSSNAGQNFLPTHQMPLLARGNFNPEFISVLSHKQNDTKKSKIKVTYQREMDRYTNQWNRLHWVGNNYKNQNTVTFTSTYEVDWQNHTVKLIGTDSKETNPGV

B1: anti-LukAB mAb SM1B111 (antibody, V domains shown)
VH: EVQLQQSGAELVKPGASVKISCKASGYAFSSSWMNWLKQRPGKGLEWIGRIYPGDGDTNYNGKFKGKATLTADKSSSTAYMQLSSLTSEDSAVYFCARYGYDYDGEYYYAMDYWGQGTSVTVSS
VL: DIVMTQSPTTMAASPGERITITCSAHSNLISNYLHWYQQKPGFSPKLLIYRTSNLASGVPARFSGSGSGTSYSLTIGTMEAEDVATYFCQQGSSIPFTFGSGTKLEIKR
binding result [1]: binds

B2: Fab SM1B709 (the Fab corresponding to mAb SM1B507) (Fab, V domains shown)
VH: EVQLQQSGAELVKPGASVKMSCKASGYTFTDYYMDWVKQSHGKSFEWIGHVNPYNGDTRYNQKFKGKATLTVDKSSTTAYMELNSLTSEDSAVYYCARGNFFDYWGQGTTLSVSS
VL: DIVMTQSPAIMSASPGEKVTIPCSASSSVSYMHWFQQKPGTSPKLWIYSTSNLASGVPGRFSGSGSGTSYSLTISRMEAEDAATYYCQQRSNYPLTFGAGTKLELKR
binding result [2]: binds

B3: anti-LukE mAb SM1B507 (antibody, mouse IgG1, kappa)
heavy: EVQLQQSGAELVKPGASVKMSCKASGYTFTDYYMDWVKQSHGKSFEWIGHVNPYNGDTRYNQKFKGKATLTVDKSSTTAYMELNSLTSEDSAVYYCARGNFFDYWGQGTTLSVSSAKTTPPSVYPLAPGSAAQTNSMVTLGCLVKGYFPEPVTVTWNSGSLSSGVHTFPAVLESDLYTLSSSVTVPSSPRPSETVTCNVAHPASSTKVDKKIVPRDCGCKPCICTVPEVSSVFIFPPKPKDVLTITLTPKVTCVVVDISKDDPEVQFSWFVDDVEVHTAQTQPREEQFNSTFRSVSELPIMHQDWLNGKEFKCRVNSAAFPAPIEKTISKTKGRPKAPQVYTIPPPKEQMAKDKVSLTCMITDFFPEDITVEWQWNGQPAENYKNTQPIMNTNGSYFVYSKLNVQKSNWEAGNTFTCSVLHEGLHNHHTEKSLSHSPGK
light: DIVMTQSPAIMSASPGEKVTIPCSASSSVSYMHWFQQKPGTSPKLWIYSTSNLASGVPGRFSGSGSGTSYSLTISRMEAEDAATYYCQQRSNYPLTFGAGTKLELKRADAAPTVSIFPPSSEQLTSGGASVVCFLNNFYPKDINVKWKIDGSERQNGVLNSWTDQDSKDSTYSMSSTLTLTKDEYERHNSYTCEATHKTSTSPIVKSFNRNEC
binding result [3]: binds

B4: anti-LukAB mAb SM1B245 (antibody, mouse IgG2a, kappa, V domains shown)
VH: QVQLQQSGAELAKPGASVKMSCKSSGYTFSTYWMHWVKQRPGQGLEWIGYINPNTGYTEYNQKFKDTATLTADKSSSTAYMQLSSLTSEDSAVYYCARGGSKAFPYYAMDYWGQGTSVTVSS
VL: DIVLTQSPASLAVSLGQRATMSCRASESVDGYGNSFLHWYQQKPGQPPKLLIYRASNLESGIPARFSGTGSRTDFTLTITPVEADDVATYYCQQSNGDPFTFGSGTKLEIKR
binding result [1]: binds

B5: anti-LukAB mAb SM1B252 (antibody, mouse IgG2a, kappa, V domains shown)
VH: QVQLQQSGAELMKPGASVKISCKASGYTFSDYWIEWIKQRPGHGLEWMGEILPGSDKTNYNEKFKGKATFTADSSSNTAYMQLNSLTSEDSAVFYCATAGDDYVKWGQGTLVTVSA
VL: DVLMTQTPLSLPVSLGDQASISCRSSQSIVYSNGNTYLEWYLQKPGQSPKLLIYKVSNRFSGVPDRFSGSGSGTDFTLKISRVEAEDLGVYYCFQGSHVPFTFGSGTKLEIKR
binding result [1]: binds

B6: Fab SM1B438 (the Fab corresponding to mAb SM1B318) (Fab, V domains shown)
VH: QVQLQQSGAELMNPGASVKISCKSTGYKFSSYWIEWVKQRPGHGLEWMGEILPGSGSTNHNEKFKGKAIFTADASSNTAYMELSSLTSEDSAVYYCARTISTATDWFAYWGQGTLVTVSA
VL: DVLMTQTPLSLPVSLGDQASISCRSSQTIVYSDGNTYLEWYLQKPGQSPKLLIYKVSNRFSGVPDRVSGSGSGTDFTLKISRVEAEDLGVYYCFQGSHVPYTFGGGTKLEIKR
binding result [2]: binds

B7: anti-LukE mAb SM1B318 (antibody, mouse IgG2a, kappa, V domains shown)
VH: QVQLQQSGAELMNPGASVKISCKSTGYKFSSYWIEWVKQRPGHGLEWMGEILPGSGSTNHNEKFKGKAIFTADASSNTAYMELSSLTSEDSAVYYCARTISTATDWFAYWGQGTLVTVSA
VL: DVLMTQTPLSLPVSLGDQASISCRSSQTIVYSDGNTYLEWYLQKPGQSPKLLIYKVSNRFSGVPDRVSGSGSGTDFTLKISRVEAEDLGVYYCFQGSHVPYTFGGGTKLEIKR
binding result [4]: binds

B8: anti-LukE mAb SM1B332 (antibody, mouse IgG2a, kappa, V domains shown)
VH: QVQLKESGPGLVAPSQSLSITCTVSGLSLTSYGLSWVRQPPGKGLEWLGVIWGDGSTNYHSALISRLSISKDNSKSQVFLKLNSLQSDDTATYYCATRGDYGSYAMDYWGQGTSVTVSS
VL: QIVLTQSPAIMSASPGEKVTLTCSASSSVSSSYLFWYQQKPGSSPKLWIYSTSNLASGVPVRFSGSGFGTSYSLTISRMEAEDAASYFCHQWSSYPPTFGAGTKLELKR
EC50 [4]: ~0.05 µg/mL

B9: antibody SM1B225 (antibody, V domains shown)
VH: EVQLQQSGGGLVKPGGSLKLSCAASGFTFSSYAMSWVRQTPEKRLEWVATITGGGTYTYYLDSVKGRFTISRDNAKTSLYLQMSSLRSEDTAMYYCARHRDGNYGCFDVWGAGTTVTVSS
VL: DIVLTQSPAIMSASLGERVTMTCTASSSVSSSYLHWYQQKPGSSPKLWVYSTSNLASGVPARFSGSGSGSSYSLTISSMEPEDTATYYCHQYHRSPQTFGGGTKLEIKR
notes: also called anti-LukD mAb SM1B225
EC50 [5]: 0.01 to 0.2 µg/mL
